The experiment addresses RSV fusion (F) protein (prefusion F, on recombinant RSV strain A2 virions) (respiratory syncytial virus (strain A2)) (UniProt P03420). The experiment in a line: cell-based or functional assay.

Several values for one entry are separate records, joined by “and”; a condition that tells them apart may be missing. Identical values can stand only once.

UniProt P03420, sequence (P03420 26-574): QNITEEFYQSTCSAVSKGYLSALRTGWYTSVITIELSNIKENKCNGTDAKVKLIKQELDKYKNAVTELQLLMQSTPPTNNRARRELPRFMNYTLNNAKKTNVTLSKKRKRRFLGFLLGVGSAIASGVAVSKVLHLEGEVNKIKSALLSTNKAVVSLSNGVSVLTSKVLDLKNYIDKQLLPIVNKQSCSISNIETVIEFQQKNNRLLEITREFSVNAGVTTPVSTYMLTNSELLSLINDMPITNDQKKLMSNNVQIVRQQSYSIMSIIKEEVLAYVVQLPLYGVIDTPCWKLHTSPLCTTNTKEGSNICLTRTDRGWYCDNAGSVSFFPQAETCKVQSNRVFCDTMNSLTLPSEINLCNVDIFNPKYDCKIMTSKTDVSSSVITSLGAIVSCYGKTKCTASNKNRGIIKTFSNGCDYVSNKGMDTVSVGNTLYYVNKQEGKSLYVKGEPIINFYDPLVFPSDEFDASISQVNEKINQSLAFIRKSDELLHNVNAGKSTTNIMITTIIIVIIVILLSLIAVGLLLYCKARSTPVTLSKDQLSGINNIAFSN

anti-prefusion F antibody D25: the complete neutralization of 300 PFU of RSV-HRP (HRP signal OD490, HEp-2 cells) came to 370 ng/mL; the complete neutralization of 300 PFU of RSV-Lucia (secreted luciferase, luminometer) (antibody dilution (1:x, of 1 mg/ml)) is 2700; the highest dilution at which the antibody negatively impacted RSV infectivity (RSV-Lucia) was 5 ng/mL and 1.7 ng/mL; the highest dilution at which the antibody negatively impacted RSV-HRP infectivity was determined as 5 ng/mL.

The values are drawn from patent US20260152727A1.
